The values that follow come from patent US20150299263A1 (FACTOR THERAPEUTICS, published 2015).

Where no end group is shown, it is not given here.

Assay [1] addresses T1, Human receptor grade IGF-II (insulin-like growth factor II) (human, UniProt P01344 25-91).
T1 construct: Bought recombinant protein, overlaid in solution on the VN-peptide array
Briefly: VN-peptide array, ligand overlay, immunoblot/ECL, TotalLab spot intensity. On the procedure:
(§1) Methanol or ethanol was used to enhance the rehydration of peptide spots that might be hydrophobic. The peptides spotted onto the membranes were activated by incubating in 3 mL of 70% ethanol for five mins. The membranes were subsequently washed three times, 10 minutes each, in 10 mL TBS (Tris Buffered Saline; 8 g NaCl, 0.2 g KCl and 6.1 g Tris Base into 1000 mL of milliQ water, pH 7) with gentle rocking. Membrane blocking was performed by incubating in 10 mL casein-based membrane blocking buffer (MBS; Sigma-Aldrich) overnight at 4° C. The following day, the membranes were washed twice, 10 minutes each, in 10 mL TBS-T (TBS+0.05% Tween-20; pH 7).
(§2) Ligands used to test binding to VN-peptides were IGFBP-3, IGFBP-5 and IGF-II. For ligand binding, four separate solutions of 1 μg/mL ligand in 10 mL MBS buffer were prepared and each membrane was incubated in one of the four ligand solutions overnight at 4° C., with gentle rocking. […] The following day, the membranes were washed three times, 10 minutes each, in 10 mL TBS-T.
(§3) The binding of the ligands to peptides within the membrane was detected using immunoblotting. The membranes were incubated overnight at 4° C. with 10 mL primary antibody solution (in MBS buffer) targeting the respective ligands. The antibodies used were anti-IGFBP-3 (1:10,000), anti-IGFBP-5 (1:10,000) and anti-IGF-II (1:5000) to detect IGFBP-3, IGFBP-5 and IGF-II respectively. The following day, the membranes were washed three times, 10 minutes each, in 10 mL TBS-T and incubated with 10 mL HRP-conjugated secondary IgG antibody diluted 1:15,000 in MBS buffer for 1 hour at room temperature. Following a further three washes of 10 minutes each, the peptide spots were visualized using ECL. The membranes were exposed onto x-ray films and developed using a film processor (AGFA CP 1000), or were imaged directly using the ChemiDoc™ XRS system (BioRad).
(A western blot detects proteins with antibodies after separation by electrophoresis.)

Assay [2] has as its target T2, Human receptor grade IGFBP-5 (insulin-like growth factor binding protein 5) (human, UniProt P24593 21-272).
T2 construct: Bought recombinant protein, overlaid in solution on the VN-peptide array
The assay is described as above. As for the experimental part:
as §1, §2, §3

Assay [3] has as its target T3, Human receptor grade IGFBP-3 (insulin-like growth factor binding protein 3) (human, UniProt P17936 28-291).
T3 construct: Bought recombinant protein, overlaid in solution on the VN-peptide array
The description is as above. As for the experimental part: as §1, §2, §3

The target of assay [4] is T1, Human receptor grade IGF-II …. In words: VN-peptide array, ligand overlay, immunoblot/ECL.
The target of assay [5] is T2, Human receptor grade IGFBP-5 …. Briefly: VN-peptide array, ligand overlay, immunoblot/ECL.
The target in assay [6] is T3, Human receptor grade IGFBP-3 …. Briefly: VN-peptide array, ligand overlay, immunoblot/ECL.
The target in assay [7] is T1, Human receptor grade IGF-II …. In words: rests on the VN-peptide array.
The target in assay [8] is T3, Human receptor grade IGFBP-3 …. Briefly: rests on the VN-peptide array.

T1 sequence (P01344 25-91 limits assumed): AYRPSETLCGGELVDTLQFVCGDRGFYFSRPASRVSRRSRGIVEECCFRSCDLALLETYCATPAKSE
T3 sequence (P17936 28-291 limits assumed): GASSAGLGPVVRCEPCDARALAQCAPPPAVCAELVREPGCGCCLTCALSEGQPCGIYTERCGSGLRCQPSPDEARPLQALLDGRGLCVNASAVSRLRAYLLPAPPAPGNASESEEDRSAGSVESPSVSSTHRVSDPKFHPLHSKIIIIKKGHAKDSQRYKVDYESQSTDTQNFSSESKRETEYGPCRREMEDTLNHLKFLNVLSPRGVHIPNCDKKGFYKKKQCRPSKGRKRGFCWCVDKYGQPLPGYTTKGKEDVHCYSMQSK
T2 sequence (P24593 21-272 limits assumed): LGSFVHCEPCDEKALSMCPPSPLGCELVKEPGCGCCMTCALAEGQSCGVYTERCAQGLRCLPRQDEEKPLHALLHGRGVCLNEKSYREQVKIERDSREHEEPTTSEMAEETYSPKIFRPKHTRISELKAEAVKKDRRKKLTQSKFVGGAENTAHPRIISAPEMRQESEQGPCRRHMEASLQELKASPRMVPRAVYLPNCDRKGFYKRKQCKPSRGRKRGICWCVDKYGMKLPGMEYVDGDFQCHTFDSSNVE

As for Ac-RRVDTVDPPYPRSIAQ (also: immobilised on cellulose membrane) [VN-peptide 8D (array grid J7)], the results for the “Intensity (against -ve control)” value in assay [1], in assay [2] and in assay [3] were 11 fold over negative controls, 8 fold over negative controls and 4 fold over negative controls, respectively.

B1: VN peptide P7 (LFSSEESNLGANNYDDYRMDWL) (peptide)
peptide: LFSSEESNLGANNYDDYRMDWL
notes: Free synthetic peptide (Mimotopes) in the migration and growth assays; The array carried only its overlapping 16-mers 7A-7C; also called Peptide 7; motif-7 mimic
Take B1: the binding result in assay [4] is “binds”.

B2: Non-binding negative control VN-peptide (KTYLFKGSQYWRFEDG) (peptide)
peptide: KTYLFKGSQYWRFEDG
modifications: also: capped by acetylation and immobilised on array, free peptide in migration assays
notes: On the array it was immobilised and capped by acetylation; in the migration assays it was a free peptide; also called Pneg; negative peptide
B2: the binding result in assay [4], in assay [5] and in assay [6] was “no binding (tested: 1 µg/mL ligand)” each time.

B3: VN-peptide 1B (array grid A14) (peptide)
peptide: DELCSYYQSCCTDYTA
modifications: not fully specified (N-terminus); cysteine pairing not given here; also: free end capped by acetylation, immobilised on cellulose membrane (SPOT synthesis)
For B3, the binding result in assay [5] and in assay [6] was “binds” each time. The “Intensity (against -ve control)” value in assay [1] is 12 fold over negative controls.

B4: VN peptide P8 (RVNLRTRRVDTVDPPYPRS) (peptide)
peptide: RVNLRTRRVDTVDPPYPRS
notes: Free synthetic peptide (Mimotopes) in the migration and growth assays; The array carried only its overlapping 16-mers 8A-8D; also called Peptide 8; motif-8 mimic
Take B4: the binding result in assay [7] and in assay [8] was “binds” in each case.

B5: VN-peptide 1A (array grid A13) (peptide)
peptide: CQCDELCSYYQSCCTD
modifications: not fully specified (N-terminus); cysteine pairing not given here; also: free end capped by acetylation, immobilised on cellulose membrane (SPOT synthesis)
With B5, the binding result in assay [4] was “binds”. The “Intensity (against -ve control)” value in assay [2] was 11 fold over negative controls; in assay [3] it was 10 fold over negative controls.
